Common to all, as to assay: fluorescence polarization; FP with 3' 6-FAM RNA; PCBP1 RNA diluted to 50 nM in PCBP binding buffer; buffer composition, pH and temperature not in the material
(Polarisation of emitted light reports the rotation of a fluorescent probe.)

The target of one data set is T1, KHDRBS2 WT (UniProt Q5VWX1 1-349).
T1 sequence: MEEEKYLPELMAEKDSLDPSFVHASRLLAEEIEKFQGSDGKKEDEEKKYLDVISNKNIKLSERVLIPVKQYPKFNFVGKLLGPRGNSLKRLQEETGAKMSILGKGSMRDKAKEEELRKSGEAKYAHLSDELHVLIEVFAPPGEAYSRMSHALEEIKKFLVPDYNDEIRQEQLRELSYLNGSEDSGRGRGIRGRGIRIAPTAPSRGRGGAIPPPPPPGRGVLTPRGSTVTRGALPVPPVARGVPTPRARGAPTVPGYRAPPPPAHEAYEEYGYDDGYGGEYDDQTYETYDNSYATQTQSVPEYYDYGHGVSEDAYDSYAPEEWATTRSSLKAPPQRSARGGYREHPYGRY
To be noted: protein: recombinant; chain copies: 2; label: 3' 6-FAM; single-stranded.

The target in another data set is T2, KHDRBS2 R168C (UniProt Q5VWX1 1-349, R168C).
T2 sequence: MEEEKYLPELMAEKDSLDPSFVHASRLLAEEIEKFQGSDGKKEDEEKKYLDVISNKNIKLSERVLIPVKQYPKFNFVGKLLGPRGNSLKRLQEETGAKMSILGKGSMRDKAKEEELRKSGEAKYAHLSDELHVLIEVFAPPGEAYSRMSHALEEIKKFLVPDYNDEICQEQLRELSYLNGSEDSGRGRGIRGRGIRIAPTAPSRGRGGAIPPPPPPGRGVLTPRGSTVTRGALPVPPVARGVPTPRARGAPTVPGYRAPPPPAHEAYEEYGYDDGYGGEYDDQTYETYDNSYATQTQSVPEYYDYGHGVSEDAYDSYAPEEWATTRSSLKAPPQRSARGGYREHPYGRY
The following applies: protein: recombinant; chain copies: 2; label: 3' 6-FAM; single-stranded.

A further data set concerns the target T3, A1CF E34K (human?, UniProt Q9NQ94 1-594, E34K).
T3 sequence: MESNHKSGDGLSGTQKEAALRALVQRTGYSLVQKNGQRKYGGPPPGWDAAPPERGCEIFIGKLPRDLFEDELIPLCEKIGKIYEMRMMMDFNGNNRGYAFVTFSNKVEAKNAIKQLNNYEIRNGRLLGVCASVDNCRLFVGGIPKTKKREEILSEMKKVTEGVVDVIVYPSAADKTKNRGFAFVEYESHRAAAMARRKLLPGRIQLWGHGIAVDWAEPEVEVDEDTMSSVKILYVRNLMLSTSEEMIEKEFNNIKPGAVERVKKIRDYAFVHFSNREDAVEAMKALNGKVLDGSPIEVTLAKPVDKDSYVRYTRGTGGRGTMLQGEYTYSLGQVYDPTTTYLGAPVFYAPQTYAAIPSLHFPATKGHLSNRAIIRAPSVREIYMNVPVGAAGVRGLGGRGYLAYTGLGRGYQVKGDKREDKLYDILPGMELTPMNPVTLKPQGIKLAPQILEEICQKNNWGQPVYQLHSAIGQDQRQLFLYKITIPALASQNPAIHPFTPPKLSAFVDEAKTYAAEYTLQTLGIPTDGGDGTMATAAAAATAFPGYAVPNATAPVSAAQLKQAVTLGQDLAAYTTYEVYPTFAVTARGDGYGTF
To be noted: protein: recombinant; label: 3' 6-FAM; single-stranded.

In another data set the target is T4, A1CF WT (human?, UniProt Q9NQ94 1-594).
T4 sequence: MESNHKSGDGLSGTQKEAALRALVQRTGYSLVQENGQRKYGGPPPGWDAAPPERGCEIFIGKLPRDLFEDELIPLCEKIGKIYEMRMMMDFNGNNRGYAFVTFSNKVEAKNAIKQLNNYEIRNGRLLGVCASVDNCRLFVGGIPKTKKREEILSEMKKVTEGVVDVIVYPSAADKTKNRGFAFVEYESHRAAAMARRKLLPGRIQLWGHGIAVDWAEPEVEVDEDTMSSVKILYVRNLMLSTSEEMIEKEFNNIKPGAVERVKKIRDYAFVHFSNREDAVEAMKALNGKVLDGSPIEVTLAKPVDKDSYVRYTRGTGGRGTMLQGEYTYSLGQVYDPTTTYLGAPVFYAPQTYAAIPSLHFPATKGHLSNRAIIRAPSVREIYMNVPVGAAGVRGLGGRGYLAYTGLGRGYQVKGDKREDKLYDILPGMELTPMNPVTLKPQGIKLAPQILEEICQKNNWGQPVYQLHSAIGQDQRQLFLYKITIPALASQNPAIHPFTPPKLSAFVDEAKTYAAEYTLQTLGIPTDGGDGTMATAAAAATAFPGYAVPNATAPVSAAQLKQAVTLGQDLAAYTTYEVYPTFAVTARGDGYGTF
To be noted: protein: recombinant; label: 3' 6-FAM; single-stranded.

We go through one molecule from publication PMC7946914, “easyCLIP analysis of RNA-protein interactions incorporating absolute quantification”.

In the case of AUUAAAUUAAAUUU (ssRNA) [AU-rich RNA (A1CF and KHDRBS2)], the binding signal with KHDRBS2 WT is 1 fold (reference); with KHDRBS2 R168C, ~2 fold affinity vs WT; with A1CF E34K, ~2 fold affinity vs WT; with A1CF WT, 1 fold (reference).
